# In patent US20100209422A1 (ROCKEFELLER UNIVERSITY, published 2010):
# B1: monoclonal antibody 13C3 (antibody, IgG1, V domains shown)
# VH: QVQLQQSGPELVRPGVSVKISCKGSGYTFTDYAMHWVKQSHAKSLEWIGVISTKYGKTNYNQKFKGKATMTVDKSSSTAYMELARLTSEDSAIYYCARGDDGYSWGQGTSVTVSS
# VL: DVVMTQTPLSLPVSLGDQASISCRSGQSLVHSNGNTYLHWYLQKPGQSPKLLIYTVSNRFSGVPDRFSGSGSGSDFTLKISRVEAEDLGVYFCSQNTFVPWTFGGGTKLEIKR
# notes: Hybridoma ATCC PTA-8830; also called mAb 13C3; anti-Aβ antibody clone 13C3
# Tests used:
# [1] = target: T1, protofibrillar (PF) form of Aβ42 (human); experiment: SPR (BIAcore), ratio of PF binding to LMW binding
# T1 construct: also called PF Aβ42; protofibril form of Aβ
# Experimental: (§1) The purified monoclonal antibodies listed in Table 1 (below), were immobilized to a BIAcore sensor chip in accordance with publish protocols. (Nice, et al. BioEssays 21: 339-352 (1999)). The high sensitivity of the BIAcore optical response quantifies a change in reflectivity and a baseline response for the ligand alone is generated. The interaction analysis is performed as the analytes, the LMW form or the PF form of […], are injected in solution over the sensor chip and the change in surface plasmon resonance generates a response identifying the specificity of each antibody's ability to bind LMW and PF Aβ42. Both the 13C3 and the 19A6 antibodies all bound to the PF form of Aβ 42 with higher specificity than the LMW form.
# Automated BIAcore systems, which use the detection principle of Surface Plasmon Resonance, were used in these experiments.
# [2] = target: T1, protofibrillar (PF) form of Aβ42; experiment: SPR (BIAcore), ratio of PF binding to LMW binding; remark: listed apart in the source
# Experimental: as §1
# T1 sequence (peptide, as listed by the source): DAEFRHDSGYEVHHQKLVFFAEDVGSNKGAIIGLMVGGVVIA
binder,measurement,setting,value
B1,binding ratio (PF/LMW),[1],5.3
same,Ratio (PF/LMW),[2],5
